Here are results for 6 molecules from US20260248972A1, “DUAL RECEPTOR TARGETING RADIOLIGANDS AND USES THEREOF RELATED APPLICATIONS” (priority 2022, published 2026).

Data set [1] concerns the target T1, CCK2R (Homo sapiens, UniProt P32239).
T1 construct: expressed in transfected cells; host or cells: HEK 293T cells
T1 sequence (P32239 1-447): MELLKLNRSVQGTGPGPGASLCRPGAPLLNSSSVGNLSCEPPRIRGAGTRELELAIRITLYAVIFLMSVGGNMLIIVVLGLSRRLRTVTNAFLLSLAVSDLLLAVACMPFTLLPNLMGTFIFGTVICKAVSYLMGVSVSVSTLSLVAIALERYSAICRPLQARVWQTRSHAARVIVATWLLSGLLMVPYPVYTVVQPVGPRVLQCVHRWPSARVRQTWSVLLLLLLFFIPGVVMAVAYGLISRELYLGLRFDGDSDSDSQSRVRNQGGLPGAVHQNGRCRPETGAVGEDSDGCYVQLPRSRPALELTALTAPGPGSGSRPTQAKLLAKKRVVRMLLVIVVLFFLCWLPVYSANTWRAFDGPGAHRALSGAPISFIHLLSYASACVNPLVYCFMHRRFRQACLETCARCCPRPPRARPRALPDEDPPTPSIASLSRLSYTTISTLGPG
Put plainly: Competitive binding (FACS) on CCK2R-transfected HEK 293T cells with Cy5-labeled F11N derivative. The conditions noted are these: HEK 293T transfected, Cy5-labeled F11N derivative competitive ligand (Table 4); read-out: CCK2R IC50.
Description: Binding Affinity Tested by Using Cy5-Labled Competitive Ligands.
HEK 293T cells were transfected with SSTR2 or CCK2R-expressing plasmid by Lipofectamine 2000 reagent. 24 hours after transfection, cells were harvested and suspended with assay buffer (1% OVA in DMEM). […] The testing compound was further supplemented into the wells at different concentrations. After incubation for 1 hour at dark, cells were washed and suspended in FACS buffer (1% OVA in DPBS).

Another data set has as its target T2, SSTR2 (Rattus norvegicus, UniProt P30680).
T2 construct: host or cells: AR42J cells
Description: Competitive cell-binding assay on AR42J cells with 125I-C1 as competitive ligand. The method, boiled down: (§1)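 Rat AR42J cells (1~3×10^6 cells/mL) in RPMI-1640 with 0.25% BSA incubated with 125I-C1 or 125I-C3 (0.02 μCi/well) plus test compound (0-10000 nM) for 1 h at 37° C., n=3. Unbound ligand removed by filtration; bound radioactivity γ-counted; IC50 by nonlinear regression.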

Data set [2] can be described thus: Biodistribution study of 177Lu-labeled compounds in AR42J tumor-bearing mice. The conditions noted are these: BALB/c nude, mouse, in vivo, iv, total radioactivity. The method, boiled down: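 Compounds labelled with ^177Lu in 0.5 M NaOAc pH 4.5 at 95° C for 15 min, then used directly or diluted in PBS with 3 mg/mL ascorbate. BALB/c nude mice bore subcutaneous AR42J flank xenografts (0.05-0.50 g). Organs excised at 4, 24 and 72 h post-injection and γ-counted for % ID and % ID/g.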

The target of data set [3] is T3, CCK2R (Rattus norvegicus, UniProt P30553).
T3 construct: host or cells: AR42J cells
T3 sequence (P30553 1-452): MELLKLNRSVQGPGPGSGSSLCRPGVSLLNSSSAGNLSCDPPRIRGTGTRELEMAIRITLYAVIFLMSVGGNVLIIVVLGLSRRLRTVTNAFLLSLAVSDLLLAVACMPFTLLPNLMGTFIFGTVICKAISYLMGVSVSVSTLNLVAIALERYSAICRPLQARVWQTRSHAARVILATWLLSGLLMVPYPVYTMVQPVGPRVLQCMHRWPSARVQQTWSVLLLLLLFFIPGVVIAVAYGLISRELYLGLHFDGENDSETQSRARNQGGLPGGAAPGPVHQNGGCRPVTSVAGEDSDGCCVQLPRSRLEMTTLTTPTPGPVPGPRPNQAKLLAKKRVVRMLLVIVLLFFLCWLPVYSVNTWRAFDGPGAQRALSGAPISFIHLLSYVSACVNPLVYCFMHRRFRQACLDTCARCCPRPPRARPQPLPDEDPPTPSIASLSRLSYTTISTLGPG
Put plainly: Competitive cell-binding assay on AR42J cells with 125I-C3 as competitive ligand. Summed up: as §1

Where [4] appears, read: T/K Tumor/Kidney ratio, 177Lu-labeled, 24 hours after dosing.
The mark [5] stands for this setting: T/L Tumor/Liver ratio, 177Lu-labeled, 24 hours after dosing.
Setting [6] is: T/P Tumor/Pancreas ratio, 177Lu-labeled, 24 hours after dosing.
[7] abbreviates: T/Sp Tumor/Spleen ratio, 177Lu-labeled, 24 hours after dosing.
[8] abbreviates: T/St Tumor/Stomach ratio, 177Lu-labeled, 24 hours after dosing.
Where [9] appears, read: uptake Kidney, 177Lu-labeled, 24 hours after dosing (Table 5).
Setting [10] is: uptake Liver, 177Lu-labeled, 24 hours after dosing (Table 5).
[11] abbreviates: uptake Pancreas, 177Lu-labeled, 24 hours after dosing (Table 5).
Where [12] appears, read: uptake Spleen, 177Lu-labeled, 24 hours after dosing (Table 5).
Where [13] appears, read: uptake Stomach, 177Lu-labeled, 24 hours after dosing (Table 5).
Where [14] appears, read: uptake Tumor, 177Lu-labeled, 24 hours after dosing (Table 5).

pIC50: −log10 of the molar value. Where two headings read alike, the source gives them in different places.

T2 sequence (P30680 whole entry): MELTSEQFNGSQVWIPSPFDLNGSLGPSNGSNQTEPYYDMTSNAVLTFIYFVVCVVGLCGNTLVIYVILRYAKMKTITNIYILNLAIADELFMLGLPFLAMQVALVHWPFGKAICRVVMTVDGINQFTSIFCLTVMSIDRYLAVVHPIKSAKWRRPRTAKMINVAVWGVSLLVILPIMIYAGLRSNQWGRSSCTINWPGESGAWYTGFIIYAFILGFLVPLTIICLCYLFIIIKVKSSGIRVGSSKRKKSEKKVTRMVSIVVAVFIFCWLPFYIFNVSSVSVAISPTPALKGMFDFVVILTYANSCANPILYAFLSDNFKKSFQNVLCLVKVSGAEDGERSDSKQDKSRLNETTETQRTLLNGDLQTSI

For `CCCC[C@H](NC(=O)[C@H](Cc1c[nH]c2ccccc12)NC(=O)CNC(=O)[C@H](Cc1ccc(O)cc1)NC(=O)[C@H](C)NC(=O)[C@@H](CCC(=O)O)NC(=O)[C@@H](CCC(=O)O)NC(=O)[C@@H](CCC(=O)O)NC(=O)[C@@H](CCC(=O)O)NC(=O)[C@@H](CCC(=O)O)NC(=O)[C@@H](CCC(=O)O)NC(=O)CN1CCN(CC(=O)O)CCN(CC(=O)O)CCN(CC(=O)O)CC1)C(=O)N[C@@H](CC(=O)O)C(=O)N[C@@H](Cc1ccccc1)C(N)=O` [Compound C5, DOTA-e-e-e-e-e-e-Ala-Tyr-Gly-Trp-Nle-Asp-Phe-NH2, reference compound], at CCK2R [1], the pIC50 was 7.59.
For the molecule `C[C@@H](O)[C@H](NC(=O)[C@@H]1CSSC[C@H](NC(=O)[C@@H](Cc2ccccc2)NC(=O)[C@H](CCCCNC(=O)c2cccc(NC(=O)N[C@@H]3CN(C4CCCCC4)c4ccccc4N(CC(=O)C(C)(C)C)C3=O)c2)NC(=O)CN2CCN(CC(=O)O)CCN(CC(=O)O)CCN(CC(=O)O)CC2)C(=O)N[C@@H](Cc2ccc(O)cc2)C(=O)N[C@H](Cc2c[nH]c3ccccc23)C(=O)N[C@@H](CCCCN)C(=O)N[C@@H]([C@@H](C)O)C(=O)N1)C(=O)O` [Compound I-34, DOTA-K(Z360)-f[CYwKTC]T-OH], the “Relative Binding Affinity SSTR2” value on SSTR2 is listed as 1.49. In addition, the tissue to tissue ratio at 24 h in data set [2] (setting [4]) was 3.7; in data set [2] (setting [5]), 1.1; in data set [2] (setting [6]), 7; in data set [2] (setting [7]), 2.4; in data set [2] (setting [8]), 4. Also, the tissue uptake at 24 h was found to be 6.1 %ID/g in data set [2] (setting [9]); 19.8 %ID/g in data set [2] (setting [10]); 3.2 %ID/g in data set [2] (setting [11]); 9.5 %ID/g in data set [2] (setting [12]); 5.7 %ID/g in data set [2] (setting [13]); 22.7 %ID/g in data set [2] (setting [14]). The “Relative Binding Affinity CCK2R” value on CCK2R [3] was found to be 5.9.
Take `C[C@@H](O)[C@H](NC(=O)[C@@H]1CSSC[C@H](NC(=O)[C@@H](Cc2ccccc2)NC(=O)[C@H](CCCCNC(=O)COCCOCCNC(=O)c2cccc(NC(=O)N[C@@H]3CN(C4CCCCC4)c4ccccc4N(CC(=O)C(C)(C)C)C3=O)c2)NC(=O)CN2CCN(CC(=O)O)CCN(CC(=O)O)CCN(CC(=O)O)CC2)C(=O)N[C@@H](Cc2ccc(O)cc2)C(=O)N[C@H](Cc2c[nH]c3ccccc23)C(=O)N[C@@H](CCCCN)C(=O)N[C@@H]([C@@H](C)O)C(=O)N1)C(=O)O` [Compound I-36, DOTA-K(-OEG-Z360)-f[CYwKTC]T-OH]: the results for the pIC50 on SSTR2 and on CCK2R [3] were 8.80 and 8.38, respectively. In addition, the “Relative Binding Affinity SSTR2” value on SSTR2 was found to be 1.76. Also, the tissue to tissue ratio at 24 h in data set [2] (setting [4]) was 2.9; in data set [2] (setting [5]) it was 4.3; in data set [2] (setting [6]) it was 13; in data set [2] (setting [7]), 36; in data set [2] (setting [8]), 11. Further, the tissue uptake at 24 h in data set [2] (setting [9]) was determined as 7.4 %ID/g; in data set [2] (setting [10]) it was 5 %ID/g; in data set [2] (setting [11]), 1.6 %ID/g; in data set [2] (setting [12]) it was 0.6 %ID/g; in data set [2] (setting [13]), 2 %ID/g; in data set [2] (setting [14]) it was 21.6 %ID/g. Also, the “Relative Binding Affinity CCK2R” value on CCK2R [3] was found to be 4.0.
For the molecule `C[C@@H](O)[C@H](NC(=O)[C@@H]1CSSC[C@H](NC(=O)[C@@H](Cc2ccccc2)NC(=O)COCCOCCNC(=O)COCCOCCNC(=O)[C@H](CCCCNC(=O)c2cccc(NC(=O)N[C@@H]3CN(C4CCCCC4)c4ccccc4N(CC(=O)C(C)(C)C)C3=O)c2)NC(=O)CN2CCN(CC(=O)O)CCN(CC(=O)O)CCN(CC(=O)O)CC2)C(=O)N[C@@H](Cc2ccc(O)cc2)C(=O)N[C@H](Cc2c[nH]c3ccccc23)C(=O)N[C@@H](CCCCN)C(=O)N[C@@H]([C@@H](C)O)C(=O)N1)C(=O)O` [Compound I-39, DOTA-K(Z360)-OEG-OEG-f[CYwKTC]T-OH], the pIC50 on SSTR2 (AR42J cells, 125I-C1 competitive ligand, 37° C. 1 h, read-out: SSTR2/IC50) is 9.44; on CCK2R [3] (AR42J cells, 125I-C3 competitive ligand, 37° C. 1 h, read-out: CCK2R/IC50), 8.31. Also, at SSTR2 (based on mean IC50, C-1 = 1.00), the “Relative Binding Affinity SSTR2” value is given as 7.67. Moreover, the tissue to tissue ratio at 24 h in data set [2] (T/K Tumor/Kidney ratio) was determined as 2.3; in data set [2] (T/L Tumor/Liver ratio), 9.9; in data set [2] (T/P Tumor/Pancreas ratio) it was 29; in data set [2] (T/Sp Tumor/Spleen ratio) it was 89; in data set [2] (T/St Tumor/Stomach ratio), 5.9. Further, the tissue uptake at 24 h came to 12 %ID/g in data set [2] (uptake Kidney); 2.78 %ID/g in data set [2] (uptake Liver); 0.94 %ID/g in data set [2] (uptake Pancreas); 0.31 %ID/g in data set [2] (uptake Spleen); 4.63 %ID/g in data set [2] (uptake Stomach); 27.5 %ID/g in data set [2] (uptake Tumor). For the same molecule, the “Relative Binding Affinity CCK2R” value at CCK2R [3] (based on mean IC50, C-2 = 1.00) amounted to 3.4.
`C[C@@H](O)[C@H](NC(=O)[C@@H]1CSSC[C@H](NC(=O)[C@@H](Cc2ccccc2)NC(=O)[C@H](CCCCNC(=O)COCCOCCNC(=O)COCCOCCNC(=O)c2cccc(NC(=O)N[C@@H]3CN(C4CCCCC4)c4ccccc4N(CC(=O)C(C)(C)C)C3=O)c2)NC(=O)CN2CCN(CC(=O)O)CCN(CC(=O)O)CCN(CC(=O)O)CC2)C(=O)N[C@@H](Cc2ccc(O)cc2)C(=O)N[C@H](Cc2c[nH]c3ccccc23)C(=O)N[C@@H](CCCCN)C(=O)N[C@@H]([C@@H](C)O)C(=O)N1)C(=O)O` [Compound I-42, DOTA-K(-OEG-OEG-Z360)-f]CYwKTC]T-OH]: the “Relative Binding Affinity SSTR2” value on SSTR2 (based on mean IC50, C-1 = 1.00) was 0.54. Also, the tissue to tissue ratio at 24 h in data set [2] (T/K Tumor/Kidney ratio) turned out to be 1.1; in data set [2] (T/L Tumor/Liver ratio) it was 3.3; in data set [2] (T/P Tumor/Pancreas ratio), 12; in data set [2] (T/Sp Tumor/Spleen ratio) it was 62; in data set [2] (T/St Tumor/Stomach ratio), 8.8. The tissue uptake at 24 h came to 17.8 %ID/g in data set [2] (uptake Kidney); 5.6 %ID/g in data set [2] (uptake Liver); 1.6 %ID/g in data set [2] (uptake Pancreas); 0.3 %ID/g in data set [2] (uptake Spleen); 2.1 %ID/g in data set [2] (uptake Stomach); 18.7 %ID/g in data set [2] (uptake Tumor). On CCK2R [3] (based on mean IC50, C-2 = 1.00), the “Relative Binding Affinity CCK2R” value was determined as 115.
For `C[C@@H](O)[C@H](NC(=O)[C@@H]1CSSC[C@H](NC(=O)[C@@H](Cc2ccccc2)NC(=O)CCCCCNC(=O)CCCCCNC(=O)[C@H](CCCCNC(=O)[C@H](CCC(=O)O)NC(=O)c2cccc(NC(=O)N[C@@H]3CN(C4CCCCC4)c4ccccc4N(CC(=O)C(C)(C)C)C3=O)c2)NC(=O)CCC(C(=O)O)N2CCN(CC(=O)O)CCN(CC(=O)O)CCN(CC(=O)O)CC2)C(=O)N[C@@H](Cc2ccc(O)cc2)C(=O)N[C@H](Cc2c[nH]c3ccccc23)C(=O)N[C@@H](CCCCN)C(=O)N[C@@H]([C@@H](C)O)C(=O)N1)C(=O)O` (stereo partly shown) [Compound I-72, DOTAGA- K(-Glu- Z360)- Ahx- Ahx- f[CYwKTC]T- OH], the pIC50 on CCK2R [1] was 8.26.
